One block for each binder: values may come before it.
Assays:
[1] = target: T1, CD3 epsilon on human T-cells (human, UniProt P07766 23-207); assay: cell-based or functional assay
[2] = target: T1, CD3 epsilon on human T-cells; assay: T cell binding
[3] = target: T1, CD3 epsilon on human T-cells; assay: T-cell binding assay, FIG. 15
[4] = target: T2, MSNW10, recombinant full length human MSLN (human, UniProt Q13421 296-598); assay: SPR, additional experiments
T2 construct: also called MSNW10.002; FL-MSLN

[5] = target: T3, MSNW11, recombinant soluble (shed) MSLN lacking the C-terminal 7 AAs (human, UniProt Q13421 296-591); assay: H838 cell binding with shed MSLN (MSNW11) added
T3 construct: domain: soluble MSLN lacking the C-terminal 7 AAs; also called MSNW11.002; soluble MSLN
From the text: Table 16 lists the immunization campaigns, antigens used, and number of clones returned at each stage of screening. Clones from which antibody sequences were successfully recovered were first screened for binding to recombinant full length human MSLN (MSNW10) and H838 cells that express MSLN on the cell surface. Binders were further screened for binding to cells in the presence of recombinant soluble MSLN lacking the C-terminal 7 AAs (MSNW11). This form of recombinant MSLN represented the product of cleavage at the closest cleavage site to the C-terminus known at the time, therefore, it theoretically represented the longest form of shed MSLN. The final concentration of shed MSLN in the assays was 100 nM.

[6] = target: T2, MSNW10, recombinant full length human …; assay: SPR, recombinant full-length human MSLN
[7] = target: T4, 14 AA stub (a.a. 290-303 of SEQ ID NO: 247) (human); assay: SPR, mAb captured, peptide injected
T4 peptide: GYLVLDLSMQEALS
Experimental: (§1) The binding was assessed by SPR. Briefly, GAH-Fc was used to capture mAbs on C4 sensor chip followed by antigen injection starting at 30 nM (14 amino acid stub), 100 nM (10-13 amino acid stubs), or 1000 nM (7-9 amino acid stubs) progressing in a 3-fold dilution series in single cycle kinetics mode. HBSP+0.01% BSA was used in the assay.

[8] = target: T5, 13 AA stub (a.a. 291-303 of SEQ ID NO: 247) (human); assay: SPR, mAb captured, peptide injected
T5 peptide: YLVLDLSMQEALS
Experimental: as §1

[9] = target: T6, 12 AA stub region peptide LVLDLSMQEALS (human); assay: SPR, mAb captured, peptide injected
T6 construct: free N-terminus; also called 12 AA Peptide
T6 peptide: LVLDLSMQEALS
Experimental: as §1

[10] = target: T7, 11 AA stub (a.a. 293-303 of SEQ ID NO: 247) (human); assay: SPR, mAb captured, peptide injected
T7 peptide: VLDLSMQEALS
Experimental: as §1

[11] = target: T8, 10 AA stub (a.a. 294-303 of SEQ ID NO: 247) (human); assay: SPR, mAb captured, peptide injected
T8 peptide: LDLSMQEALS
Experimental: as §1

[12] = target: T9, 9 AA stub (a.a. 295-303 of SEQ ID NO: 247) (human); assay: SPR, mAb captured, peptide injected
T9 peptide: DLSMQEALS
Experimental: as §1

[13] = target: T10, 7 AA stub (a.a. 297-303 of SEQ ID NO: 247) (human); assay: SPR, mAb captured, peptide injected
T10 peptide: SMQEALS
Experimental: as §1

[14] = target: T11, 8 AA stub (a.a. 296-303 of SEQ ID NO: 247) (human); assay: competition of OVCAR8 cell binding by the peptide
T11 construct: also called 8 AA Peptide; peptide of the last 8 C-terminal amino acids
T11 peptide: LSMQEALS

[15] = target: T12, human MSLN on the cell surface (human, UniProt Q13421 296-598); assay: high content imaging, surface staining of OVCAR8 cells
T12 construct: on cells stands the processed GPI-anchored 40 kDa MSLN; also called membrane MSLN; MSLN on H838, OVCAR-8 (OVCAR8), OVCAR-8 K1/C8, SK-OV-3 cells
Experimental: OVCAR8 cells were cultured in RPMI 1640 medium supplemented with 10% FCS, 1% L-glutamine and 1% Gentamycin and seeded in Greiner CELLSTAR plate one day before experiment. 24 h after seeding, antibody mixture was prepared by diluting MSLN and control antibodies in Table 21 in full media containing CellMask™ Deep Red Plasma Membrane Stain (ThermoFisher, C10046) in 12 concentrations each with 3 folds dilution starting from 20 μg/ml and 20 μl of which were added directly to the cells in 20 μl. Antibodies were allowed for binding to the cell surface for 2h inside the incubator (37°) C. and the surface bound antibodies were fixed for 15 min at RT by directly adding 30 ul of 10% Formaldehyde (04018-1, Polysciences). Afterwards residual Formaldehyde was removed by washing the cells twice with PBS and the primary antibodies were stained with secondary antibodies (Alexa Fluor 488 goat anti-human IgG, Invitrogen, A11013) complemented with Hoechst 33342 (H3570, ThermoFisher) and HCS CellMask™ Deep Red Stain (ThermoFisher, H32721) in PBS for 1h at RT. After removing unbound antibodies and other dyes by washing the cells 3 times with PBS cells were imaged on the CellVoyager 7000 (Yokogawa, Tokyo, Japan) using a 40×/0.95 objective. Of each well, 9 fields were imaged. Image analysis was performed with Acapella (PerkinElmer, Waltham, MA, USA) and the results stored in Phaedra (OpenAnalytics, Antwerp, Belgium). Data analysis was done in R (www.r-project.org).
The data was then fitted using the four-parameter logistic using least-squares regression, keeping the lower boundary fixed at 0.

[16] = target: T6, 12 AA stub region peptide LVLDLSMQEALS; assay: SPR

T2 sequence (Q13421 other isoform, or with tags, fused parts or gaps limits assumed): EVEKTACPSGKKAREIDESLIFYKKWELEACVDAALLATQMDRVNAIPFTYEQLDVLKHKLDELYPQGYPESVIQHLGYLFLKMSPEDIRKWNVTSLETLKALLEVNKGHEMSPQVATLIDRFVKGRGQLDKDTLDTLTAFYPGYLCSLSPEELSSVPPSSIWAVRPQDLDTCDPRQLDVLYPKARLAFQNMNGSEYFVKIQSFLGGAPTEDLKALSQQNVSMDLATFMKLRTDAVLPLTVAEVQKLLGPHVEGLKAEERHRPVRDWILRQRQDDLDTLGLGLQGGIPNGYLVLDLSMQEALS
T3 sequence (Q13421 other isoform, or with tags, fused parts or gaps limits assumed): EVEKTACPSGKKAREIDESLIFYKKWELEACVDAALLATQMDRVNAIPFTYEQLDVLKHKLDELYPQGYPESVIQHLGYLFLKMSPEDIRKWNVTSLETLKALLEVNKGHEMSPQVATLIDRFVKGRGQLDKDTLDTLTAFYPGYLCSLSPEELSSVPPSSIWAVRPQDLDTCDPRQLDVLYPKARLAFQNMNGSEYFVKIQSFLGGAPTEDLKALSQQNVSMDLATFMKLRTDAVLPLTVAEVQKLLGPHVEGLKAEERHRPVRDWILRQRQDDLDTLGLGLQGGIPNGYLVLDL
T1 sequence (P07766 23-207 limits assumed): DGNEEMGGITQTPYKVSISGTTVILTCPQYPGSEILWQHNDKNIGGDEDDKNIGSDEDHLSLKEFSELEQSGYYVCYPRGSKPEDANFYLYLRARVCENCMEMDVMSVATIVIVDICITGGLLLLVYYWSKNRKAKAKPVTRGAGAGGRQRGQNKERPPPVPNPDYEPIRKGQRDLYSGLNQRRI

Kd [4]: 1.2 nM
binding result [5]: no binding (tested: 100 nM)
B5: MSLNB590 (antibody, V domains shown)
VH: QVQLQQSGPGLVKPSQTLSLTCAISGDSVSSTRAAWNWIRQSPSRGLEWLGRTYYRSKWYNDYTVSVKSRITINPDTSKNQFSLHLNSVTPEDSAVYFCARGNVGRVDFWGQGTLVTVSS
VL: EIVMTQSPLSLPVTPGEPASISCRSSQSLLHSDGYNYLDWYLQKPGQSPQLLIYLGSNRASGVPDRFSGSGSDTDFTLKISRVEAEDVGVYYCMQGLRTPLTFGPGTKLEIK
notes: mAb; also called MSNB590

Kd [6]: 3.7 nM
binding result [5]: no binding (tested: 100 nM)
B6: MSNB133 (antibody, V domains shown)
VH: QVQLQQSGPGLVKPSQTLSLTCAISGDSVSSNRVAWNWIRQSPSRGLEWLGRTYYRSKWYNDFALSVKSRININADTSKSQFSLQLNSVTPEDTAVYYCARGIVGALDYWGQGTTVTVSS
VL: DIVMTQSPLSLPVTPGEPASISCRSSQSLLFSNGYNSLDWYLQKPGQSPQLLIYLGSNRASGVPDRFSGSESGTDFTLKISRVEAEDVGVYYCMQALQTPFTFGPGTKLEIK
notes: mAb

Kd [6]: 3.5 nM
binding result [5]: no binding (tested: 100 nM)
B8: MSNB459 (antibody, V domains shown)
VH: EVQLVQSGPGLVKPSQTLSLTCAISGDSVSSNSVAWNWIRQSPSRGLEWLGRTYYRSKWYNDYALSVKSRITINPDTSKNQFSLQLNSVTPEDTAVYYCARGVVGAVDYWGQGTLVTVSS
VL: DIVMTQSPLSLPVTPGEPASISCRSSQNLLYSNGYNSLDWYLQKPGQSPQLLIYLGSNRASGVPDRFSGSGSGTDFTLKISRVEAEDVGVYYCMQGLRTPLTFGGGTKVEIK
notes: mAb

binding result [16]: binds
Kd [6]: 1.8 nM
binding result [5]: no binding (tested: 100 nM)
IC50 [15]: 0.0735 µg/mL
Maximum Value (arbitrary units) [15]: 1.46e+07 arbitrary units
B9: MSLNB571 (antibody, V domains shown)
VH: QVQLQQSGPGLVKPSQTLSLTCAISGDSVSSTSVAWNWIRQSPSGGLEWLGRIYYRSKWYNDYALSVKSRMTINPDTASNQFSLQLNSVTPEDTAVYYCSRGIVGALDYWGQGTLVTVSS
VL: DIVMTQTPLSLPVTPGGPASISCRSSQSLMYSNGYNHLDWYLQKPGQSPQFLIHLGSNRVSGVPDRFSGSGSGTDFTLKISRVEAEDVGVYYCMQALRTPYTFGQGTKVDIK
notes: mAb; also called MSNB571

Kd [4]: 0.9 nM
binding result [5]: no binding (tested: 100 nM)
B10: MSLNB592 (antibody, V domains shown)
VH: QVQLQQSGPGLVKPSQTLSLTCAISGDSVSSTSVAWNWIRQSPSGGLEWLGRTYYRSKWYNDYALSVKSRMTINPDTASNQFSLQLNSVTPEDTAVYYCSRGIVGALDYWGQGTLVTVSS
VL: DIVMTQSPLSLPVTPGEPASISCRSSQSLMYSNGYNHLDWYLQKPGQSPQFLIHLGSNRASGVPDRFSGSGSGTDFTLKISRVEAEDVGVYYCMQALRTPYTFGQGTKVEIK
notes: mAb; also called MSNB592

Further lines, the binder ahead of its results:

B1: MNC3B199 (bispecific antibody, V domains shown, not shown: a dimerising Fc or GST; small tags and cut ends)
VH 1: QVQLVESGPGQVKPSQTLSLTCAISGDSVSSNSAAWNWIRQSPSRGLEWLGRTYYRSKWYNDYAVSVKSRITINPDTSKNQFSLQLNSVTPEDTAVYYCARRDYSSGGFDYWGQGTTVTVSS
VL 1: not shown
VH 2: QVQLVQSGAEVKKPGSSVKVSCKASGYTFTRSTMHWVKQAPGQGLEWMGYINPSSAYTNYNQKFQGRVTLTADKSTSTAYMELSSLRSEDTAVYYCASPQVHYDYAGFPYWGQGTLVTVSS
VL 2: EIVLTQSPATLSASPGERVTLSCSASSSVSYMNWYQQKPGQAPRRLIYDSSKLASGVPARFSGSGSGRDYTLTISSLEPEDFAVYYCQQWSRNPPTFGGGTKVEIK
AC90 [nM], cytotoxicity, 1:1 E:T, 72 hours [1]: 7.32 nM
Max. Activity, cytotoxicity, 1:1 E:T, 72 hours [1]: 85%
qAC50 [nM], cytotoxicity, 1:1 E:T, 72 hours [1]: 1.19 nM

B2: CD3B2030-N106A (scFv, V domains shown)
VH: QVQLVQSGAEVKKPGSSVKVSCKASGYTFTRSTMHWVKQAPGQGLEWIGYINPSSAYTNYNQKFQGRVTLTADKSTSTAYMELSSLRSEDTAVYYCASPQVHYDYAGFPYWGQGTLVTVSS
VL: EIVLTQSPATLSASPGERVTLSCSASSSVSYMNWYQQKPGQAPRRWIYDSSKLASGVPARFSGSGSGRDYTLTISSLEPEDFAVYYCQQWSRNPPTFGGGTKVEIK
EC50 [2]: 50 to 100 nM

B3: CD3W245 HL formatted in the 2+1 format (bispecific antibody)
scFv: EVQLVESGGGLVKPGGSLRLSCAASGFTFSRYNMNWVRQAPGKGLEWVSSISTSSNYIYYADSVKGRFTFSRDNAKNSLDLQMSGLRAEDTAIYYCTRGWGPFDYWGQGTLVTVSSGGSEGKSSGSGSESKSTGGSDIQMTQSPSSLSASVGDRVTITCRARQSIGTAIHWYQQKPGKAPKLLIKYASESISGVPSRFSGSGSGTDFTLTISSLQPEDFATYYCQQSGSWPYTFGQGTKLEIK
VH: QVQLVESGPGQVKPSQTLSLTCAISGDSVSSNSAAWNWIRQSPSRGLEWLGRTYYRSKWYNDYAVSVKSRITINPDTSKNQFSLQLNSVTPEDTAVYYCARRDYSSGGFDYWGQGTTVTVSS
VL: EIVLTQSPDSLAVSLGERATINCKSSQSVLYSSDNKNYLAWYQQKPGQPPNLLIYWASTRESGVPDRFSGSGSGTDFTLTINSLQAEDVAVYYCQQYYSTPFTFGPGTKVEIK
notes: two MSLN targeting (MSNB457) Fabs and one CD3 scFv set between Fab and Fc of one heavy chain; also called CD3W245 HL 2+1
EC50 [3]: 44 nM

B4: CD3B2051-N106A (scFv, V domains shown)
VH: QVQLVQSGAEVKKPGSSVKVSCKASGYTFTRSTMHWVKQAPGQGLEWMGYINPSSAYTNYNQKFQGRVTLTADKSTSTAYMELSSLRSEDTAVYYCASPQVHYDYAGFPYWGQGTLVTVSS
VL: EIVLTQSPATLSASPGERVTLSCSASSSVSYMNWYQQKPGQAPRRLIYDSSKLASGVPARFSGSGSGRDYTLTISSLEPEDFAVYYCQQWSRNPPTFGGGTKVEIK
notes: CD3 targeting scFv
EC50 [2]: 50 to 100 nM

B7: MSLNB570 (antibody, V domains shown)
VH: QVQLQQSGPGLVKPSQTLSLTCAISGDSVSSTSVAWNWIRQSPSGGLEWLGRTYYRSKWYNDYALSVKSRMTINPDTASNQFSLQLNSVTPEDTAVYYCSRGIVGALDYWGQGTLVTVSS
VL: DIVMTQTPLSLPVTPGGPASISCRSSQSLMYSNGYNHLDWYLQKPGQSPQFLIHLGSNRVSGVPDRFSGSGSGTDFTLKISRVEAEDVGVYYCMQALRTPYTFGQGTKVDIK
notes: mAb; also called MSNB570
Kd [7]: 3.67 nM
Kd [8]: 4.37 nM
Kd [9]: 7.97 nM
binding result [10]: no binding (tested: 100 nM)
binding result [11]: no binding (tested: 100 nM)
binding result [12]: no binding (tested: 1000 nM)
binding result [13]: no binding (tested: 1000 nM)
Kd [6]: 3.6 nM
binding result [5]: no binding (tested: 100 nM)
binding result [14]: no binding
IC50 [15]: 0.0728 µg/mL
Maximum Value (arbitrary units) [15]: 1.39e+07 arbitrary units
